Laboratory results taken from US20050037969A1 (ARBOR VITA, published 2005).
Ends that are not written are not given here. * marks the point of attachment. Biotin = O=C1N[C@H]2[C@H](CS[C@H]2CCCCC(=O)*)N1

Key:
Test in all cases: A/G assays
[1] = molecular target: T1, GST-CASK PDZ domain fusion protein (Homo sapiens, UniProt O14936 486-575)
T1 construct: also called Homo sapiens CASK protein
T1 sequence: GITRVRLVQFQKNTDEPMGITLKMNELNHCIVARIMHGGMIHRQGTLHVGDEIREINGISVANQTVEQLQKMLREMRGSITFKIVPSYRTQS

[2] = molecular target: T2, GST-PTN-4 PDZ domain fusion protein (Homo sapiens (Human), UniProt P29074 517-605)
T2 construct: also called protein-tyrosine phosphatase meg1; not shown: glutathione S-transferase encoded by vector pGEX-3X (Pharmacia)
T2 sequence: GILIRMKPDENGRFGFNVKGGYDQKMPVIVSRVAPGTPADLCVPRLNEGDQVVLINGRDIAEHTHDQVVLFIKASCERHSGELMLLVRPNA

[3] = molecular target: T3, GST-cytohesin binding protein PDZ domain fusion protein (Homo sapiens (Human), UniProt O60759 74-165)
T3 construct: also called CBP; not shown: glutathione S-transferase encoded by vector pGEX-3X (Pharmacia)
T3 sequence: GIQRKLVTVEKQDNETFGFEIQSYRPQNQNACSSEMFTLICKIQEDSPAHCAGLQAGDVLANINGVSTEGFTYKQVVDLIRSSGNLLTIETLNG

[4] = molecular target: T4, GST-RGS12 PDZ domain fusion protein (human, UniProt O14924 17-85)
T4 construct: also called human regulator of G-protein signalling 12; not shown: glutathione S-transferase encoded by vector pGEX-3X (Pharmacia)
T4 sequence: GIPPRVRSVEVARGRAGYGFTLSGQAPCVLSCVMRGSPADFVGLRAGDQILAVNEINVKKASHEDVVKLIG

[5] = molecular target: T5, GST-DLG5 (p-dlg) PDZ domain fusion protein (Human, UniProt Q8TDM6 1343-1583)
T5 construct: also called Human discs large protein p-dlg; not shown: glutathione S-transferase encoded by vector pGEX-3X (Pharmacia)
T5 sequence: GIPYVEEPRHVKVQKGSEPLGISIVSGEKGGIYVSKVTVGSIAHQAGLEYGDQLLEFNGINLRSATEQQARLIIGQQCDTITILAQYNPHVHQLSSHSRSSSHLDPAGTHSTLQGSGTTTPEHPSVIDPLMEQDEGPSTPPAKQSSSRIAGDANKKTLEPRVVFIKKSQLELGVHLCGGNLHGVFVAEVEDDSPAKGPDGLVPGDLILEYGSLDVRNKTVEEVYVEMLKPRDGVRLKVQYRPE

[6] = molecular target: T6, GST-TIAM1 PDZ domain fusion protein (Homo sapiens (Human), UniProt Q13009 845-931)
T6 construct: also called TLAM1; T-lymphoma invasion and metastasis inducing protein 1; not shown: glutathione S-transferase encoded by vector pGEX-3X (Pharmacia)

[7] = molecular target: T7, GST-DVL1 PDZ domain fusion protein (human, UniProt O14640 247-339)
T7 construct: also called human dishevelled segment polarity protein homolog; not shown: glutathione S-transferase encoded by vector pGEX-3X (Pharmacia)
T7 sequence: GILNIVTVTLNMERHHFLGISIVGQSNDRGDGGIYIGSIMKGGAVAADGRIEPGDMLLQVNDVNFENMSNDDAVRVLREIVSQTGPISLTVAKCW

[8] = molecular target: T8, GST-KIAA0303 PDZ domain fusion protein (Homo sapiens (Human), UniProt O15021 1138-1228)
T8 construct: also called K303; not shown: glutathione S-transferase encoded by vector pGEX-3X (Pharmacia)
T8 sequence: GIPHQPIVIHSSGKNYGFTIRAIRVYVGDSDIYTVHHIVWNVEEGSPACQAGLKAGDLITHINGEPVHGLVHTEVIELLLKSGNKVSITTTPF

[9] = molecular target: T9, KIAA0807 (PDZ domain)-GST fusion protein (human, UniProt Q6P0Q8 1104-1192)
T9 construct: also called K807; KIAA807; not shown: glutathione S-transferase encoded by vector pGEX-3X (Pharmacia)
T9 sequence: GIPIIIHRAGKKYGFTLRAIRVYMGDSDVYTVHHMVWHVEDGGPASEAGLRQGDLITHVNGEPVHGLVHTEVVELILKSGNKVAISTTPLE

[10] = molecular target: T10, TAX-IP2L PDZ-GST fusion protein (Homo sapiens (Human), UniProt Q8TF64 107-197)
T10 construct: Order of GST and PDZ part and limits not seen in the excerpts
T10 sequence: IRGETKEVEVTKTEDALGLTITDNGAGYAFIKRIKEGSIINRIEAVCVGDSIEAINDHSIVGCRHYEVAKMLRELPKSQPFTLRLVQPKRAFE

[11] = molecular target: T11, MINT3 PDZ-GST fusion protein
T11 construct: Order of GST and PDZ part and limits not seen in the excerpts
T11 chain: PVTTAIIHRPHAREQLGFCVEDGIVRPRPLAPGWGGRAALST

[12] = molecular target: T12, ConEn PDZ-GST fusion protein (Homo sapiens (Human), UniProt Q969H4 193-287)
T12 construct: The label ConEn is not explained in the excerpts
T12 sequence: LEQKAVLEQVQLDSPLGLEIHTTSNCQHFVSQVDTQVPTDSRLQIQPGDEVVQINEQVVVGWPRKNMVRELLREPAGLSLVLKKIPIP

[13] = molecular target: T13, GEF PDZ-GST fusion protein (Homo sapiens (Human), UniProt Q8TEU7 293-400)
T13 construct: The label GEF is not explained in the excerpts
T13 sequence: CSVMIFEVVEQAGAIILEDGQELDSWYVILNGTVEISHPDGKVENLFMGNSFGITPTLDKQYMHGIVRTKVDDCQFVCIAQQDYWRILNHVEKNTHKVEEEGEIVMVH

[14] = molecular target: T14, NOS1 PDZ-GST fusion protein (Homo sapiens (Human), UniProt P29475 11-100)
T14 construct: Order of GST and PDZ part and limits not seen in the excerpts

[15] = molecular target: T15, GST-prIL16 fusion protein (PDZ domains 1-2) (Homo sapiens (Human), UniProt Q14005 1111-1324)
T15 construct: also called putative interleukin 16 precursor; not shown: glutathione S-transferase encoded by vector pGEX-3X (Pharmacia)
T15 sequence: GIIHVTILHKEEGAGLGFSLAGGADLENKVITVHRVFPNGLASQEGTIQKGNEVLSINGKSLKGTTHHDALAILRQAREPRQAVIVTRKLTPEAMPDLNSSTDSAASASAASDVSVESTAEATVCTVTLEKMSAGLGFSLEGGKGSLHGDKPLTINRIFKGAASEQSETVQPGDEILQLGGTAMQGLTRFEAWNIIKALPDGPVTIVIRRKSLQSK

Measured: binding result

T6 sequence (Q13009 other isoform, or with tags, fused parts or gaps): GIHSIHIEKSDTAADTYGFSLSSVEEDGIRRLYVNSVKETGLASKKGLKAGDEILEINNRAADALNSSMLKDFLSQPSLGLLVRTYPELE
T14 sequence (P29475 11-100 limits assumed): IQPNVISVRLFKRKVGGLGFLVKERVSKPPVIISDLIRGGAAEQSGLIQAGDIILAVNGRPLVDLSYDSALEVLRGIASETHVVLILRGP

B1: CD44 C-terminal peptide AA9L, biotinylated (peptide)
peptide: Biotin-QFMTADETRNLQNVDMKIGV
notes: also called CD44 (long form)
not listed: [15]
no binding: all other assays above

B2: DNAM-1 C-terminal peptide AA22L, biotinylated (peptide)
peptide: Biotin-TREDIYVNYPTFSRRPKTRV
not listed: [4] | [14]
no binding: all other assays above

B3: V-gated Ca2+ channel C-terminal peptide AA46L (peptide)
peptide: Biotin-SSGGRARHSYHHPDQDHWC
notes: Marked (S), sticky peptide with high background; also called V-gated Ca2+ channel (S)
not listed: [10] | [12] | [13]
no binding: all other assays above

B4: CDW125 (IL5R) C-terminal peptide AA28L, biotinylated (peptide)
peptide: Biotin-EVICYIEKPGVETLEDSVF
not listed: [2] | [4]
no binding: all other assays above

B5: CDw137 (4-1BB ILA) C-terminal peptide AA21L (peptide)
peptide: Biotin-QEEDGCSCRFPEEEEGGCEL
modifications: cysteine pairing not given here
notes: Marked (S), sticky peptide with high background; also called CDw137 (4-1BB ILA) (S)
not listed: [10] | [12] | [13]
no binding: all other assays above

B6: CD34 C-terminal peptide AA7L, biotinylated (peptide)
peptide: Biotin-QATSENGHSARQHVVADTEL
not listed: [9]
no binding: all other assays above

B7: CD138 C-terminal peptide AA18L, biotinylated (peptide)
peptide: Biotin-PKQANGGAYQKPTKQEEFYA
notes: also called CD138 (syndecan-1); CD138 (syndecan)
not listed: [1] | [6]
no binding: all other assays above

B8: CD49E C-terminal peptide AA11L, biotinylated (peptide)
peptide: Biotin-PYGTAMEKAQLKPPATSDA
notes: also called CD49E (alpha-4)
no binding: all assays above

B9: CD95 (Fas) C-terminal peptide AA13L, biotinylated (peptide)
peptide: Biotin-KDITSDSENSNFRNEIQSLV
notes: also called CD95 (Apo-1/Fas); AAI3L
no binding: all assays above
